Data reported in the RNAGym collection of RNA variant scans (doi:10.1073/pnas.2313332121).

B1: TPR t1 (parent)
chain: GACCAAUCUGCCCUCAGAGCUCGAGAACAUCUUCGGAUGCAGAGGAGGCAGGCUUCGGUGGCGCGAUAGCGCCAACGUCCUCAACCUCCAAUGCAUCCCACCACAUGAUGAUGCCUGAAGAGCCUUGGUUUUUUG

Variants of: B1
Test: polymerase ribozyme fitness, log enrichment relative to wild type (log ratio); higher = more active; in vitro selection for triplet polymerase activity
Outline: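 For each subunit of a heterodimeric triplet polymerase ribozyme, a mutant library was built by PCR and transcribed, then taken through a single in vitro selection round in triplicate. Selection involved annealing to a biotinylated primer, the partner subunit and triplets, incubation frozen at −7 °C, gel excision of extended constructs, capture on streptavidin beads and RT-PCR. Genotypes were retained after Illumina sequencing of inputs and outputs only with ≥10 input reads and ≥1 read in each output. Fitness is defined as the logarithm of a genotype's enrichment relative to wild-type enrichment, using inverse-variance-weighted averages across replicates, with the logarithm taken to base 2.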

| Variant | polymerase ribozyme fitness (log ratio) |
| --- | --- |
| GACUAAUCUGCCCUCAGAGCUCGAGAACAUCUUCGGUUGUAGAGGAGGCAGGCUUCGGUGGCGCGAUAGCGCCAACGUCCUCGACCUCCAAUGCAUCCCACCACAUGAUGAUGCCUGAAGAGCCUUGGUUUUUUG [C4U A37U C40U A83G] | -2.17 |
| GACCAAUCUGACCUCAGAGCUCGAGAACAUCUUCGGAUACAGAGGAGGCAGGCAUCGGUGGCGCGAUAGCGACAACGUCCUCAACCUCCAAUGCAUCCCACCACAUGAUGAUGCCUGAAGAGCCUUGGUUUUUUG [C11A G39A U54A C72A] | -1.51 |
| GACCAAUCUGCACUCAGAGCUCGAGAACAUCUUCGGAUGCAGAGGAGGCAGGCUUCGGUGGUGCGAUAGCGCCAACGUCCUCAACCUCCAAUGCAUCCCACCACAUGAUGAUGCCUGAAGAGCCUUGUUUUUUUG [C12A C62U G128U] | -3.03 |
| GACCAAUCUGCCCUAAGAGCUCGAGAACUUCUUCGGAUGCAGAGGAGGCAGGCUUCGGUGGCGCGAUAACGCCAACGUCCUCAACCUCCAAUGCAUCCCACCACAUGAUGAUGCCUGAACAGCCUUGGUUUUUUG [C15A A29U G69A G120C] | -1.85 |
| GACCAAUCUGGCCUCAGAGCUCGAGAACAUCUUCGGAUGCAGGGGAGGCAGGCUUCGGAGGCGUGAUAGCGCCAACGUCCUCAACCUCCAAUGCAUCCCACCACAUGAUGAUGCCUGAAGAGCCUUGGUUUUUUG [C11G A43G U59A C64U] | -2.3 |
| GACUAAUCUUCCCUCAGAGCUCGAGAACAUCUUCGGAUGCAGAGGAGGCAUGCUUCGGUGGCGCGAUAGCGCCAACGUGCUCAACCUCCAAUGCAUCCCACCACAUGAUGAUGCCUGAAGAGCCUUGGUUUUUUG [C4U G10U G51U C79G] | -3.58 |
| GACCAAUCUGCCCUCAGAGCUCGAGAACAUCUUCGGAUGCAGAGGAGGCAGGCUUCGGUGGCGCGAUAGCGCCAACUUCCUCAACCUCCAAUGCAUCCCACCACAUGAUGAUGCCUGAAGAGCCUUGCUUUUUUG [G77U G128C] | -3.09 |
| GACCAAUCUUCCCUCAGAGCUCGAGAACAUCUUCGGAUGCAGAGGAGGCAGGCUUCGGUGGCGCGAUAGCGCCAACGUCCUCAACAUCCAAUGCAUCCCACUACAUGAUGAUGCCUGAAGAGCCUUGGUUUUUUG [G10U C86A C102U] | -2.34 |
| GACCAAUCUGCCCUCAGAGCUCGAGAACAUCUUCGGAUGCAGAGGAGGCAGGCUUCGGUGGCGCGAUACCGCCAACGUCCUCAACCUCCAAUGUAUCCCACCACAUGAUGAUGCCUGAAGAGCCUUGGUUUUUUG [G69C C94U] | -1.35 |
| GACCAAUCUGCCCUCACAGCUCGAGAACAUCUUCGGAUGCAGAGGAGGCAGGCUUCGGUGGCGCGAUAGCGCCAACGUUCUCAACCUCCAAUGCAUCCCACCACAUGAUGAUGCCUGAAGAGCCUUGGUUUUUUG [G17C C79U] | -4.69 |
| GACCAAUCUGCCCUCAGAGCUCGAGAACAUCUUCGGAUGGAGAGGAGGCAGGCUUCGGUGGCGCGAUAGCGCCAACGUCCUCAACCUCCAAUGCAUCCCACCACAUGAAGAUGGCUGAAGAGCCUUGGUUUAUUG [C40G U109A C114G U132A] | -4.05 |
| GACCAAUCUGCCCUCAGAGCUCGAGAACAUCUUCGGAUGCAAAGGAGGCAGGCUUCGGUGGCGCGAUAGCGCCAACGUCCUCAAACUCCAAUGGAUCCCACCACAUGAUGAUACCUGAAGAGCCUUGGUUUUUUG [G42A C85A C94G G113A] | -4.07 |
| GACCAAUCUGCCCUCAGAGCUAGAGAACAUCUUCGGAUGCAGAGGAGGCAGGCUUCGGUGGCGCGAUAGCGCCAACGUCCUAAACCUCAAAUGCAUCCCACCACAUGAUGGUGCCUGAAGAGCCUUGGUUUUUUG [C22A C82A C89A A111G] | -6.04 |
| GACCAAUCUGCCCUCAGAGCUCGAGAACAUCUUCGGAUGCAGAGGAGGCGAGCUUCGGUGGCGCGAUAGCGCCAACGUCCUCAACCUCCAAUGCAUCCCACCACAUGAUGAUGCCUGAAGAGCCUUGGUUUUUUG [A50G G51A] | -1.11 |
| GACCAAUCUGCCCUCAGAGCUCGAGAACAUCUUCGGAUGCAGAUGAGGCAGGAUUCGGUGGCGCGAUACCGCCAACGUCCUCAACCUCCAAUGCAUCCCACCACUUGAUGAUGCCUGAAGAGCCUUGGUUUUUUG [G44U C53A G69C A105U] | -5.22 |
| GACCAAUCUACCCUCAGAGCUCGAGAACAUCUUCGGAUGCAGAGGAGGCAGGCUUCGGUGGCGCGAUAGCGCCAACGUCCUCAACCUCCAAUGCAUCCCACCACAUGAUGAGGCCUGAAGAGCCUUGGUUUUUUG [G10A U112G] | 1.07 |
| GACCAAUGUGCCCUCAGAGCUCGAGAACAUCUUCGGAUGCAGAGGAGGCAGGUUUCGGUGGCGCGAUAGCGCCAACGUCCUCAACCUCCAAUGCAUCCCACCACAUGAUGAUGCCUGAAGAGCCUUGGUUUUUUG [C8G C53U] | 0.216 |
| GACCAAUCUGCCCUCAGAGCUCGAGAACAUCUUCGGAUGCAGAGGAGGCAGGCUUCGGUGGCGCGAUAGGGCCAACGUCCUCAACCUCCAAUGCAUCCCACCACAUGAUGAUGCCUGAGGAGCCUUGGUUUUUUG [C70G A119G] | -1.37 |
| GACCAAUCUGGCCUCAGAGCUCGAGAACAUCUUCGGAUGCAGAGGAGGCAGGCUUCGGUGGCGCGAUAGCGCCAACGUCCUCAACCUCCAAUGCAUCCCACCACAUGAUGAUGCCUGAAGAGCCUCGGUUUUUUG [C11G U126C] | -0.774 |
| GACCAAUCUGCCCUCAGAGCUCGAGAACAUCUUCGGAUGCAGAGGAGGUAGGCUUCGGUGUCGCGAUAGCGCCAACGUCCUCAACCUCCAAUGCAUCCCACCACAUGAUGAUGCCUGAAGAGCCUUGGUUUUUUG [C49U G61U] | -0.402 |
| GACCAAUCUGCCCUCAGAGCUCGAGAACAUCUUCGGAUGCAGAGGAGGCAGGCUUCGGUGGCGCGAUAGCGCCAACGUCCUCAACCUCCAAUGCAUUCCACCACAUGAUGAAGCCUGAAGAGCCUUGGUUUUUUG [C97U U112A] | 0.716 |

| Variant | polymerase ribozyme fitness (log ratio) |
| --- | --- |
| GACCAAUCUGCCCUCAGAGCUCGAGAACAUCUUCGGAUGCAUAGGAGGCAGGCUUCGGUGGCGCGAUAGCGCCAACGUCCUCAACCUUCAAUGCAUCCCAGCACAUGAUGAUGCCUGAAGAGCCUUGGUUUUUUG [G42U C88U C101G] | -3.94 |
| GACCAAUUUGCCCUCAGAGCUCGAGAACAUCUUCGGAUGCAGAGGAGGCAGGCUUAGGUGGCGCGAUAGCGCCAACGUCCUCAACCUCCAAUGCAUCCCACCACAUGAUGAUGCCUGAAGAGCCUUGGUUUUUUG [C8U C56A] | 0.00842 |
| GACCAAUCUGCCCUCAGAGCUCGAGAACAUCUUAGGAUGCAGAGGAGGCAGGCUUCGGUGGCGUGAUAGCGCCAACGUCCUCAACCUCCAAUGCAUCCCACCACAUGAUGAUGCCUGAAGAGCCUUGGUUUUUUG [C34A C64U] | -2.37 |
| GACCAAUCUGCCCUCAGAGCUCGAGAACAUCUUCGGAUGCAGAGGAGGCAGGCUUCGGUGGCGCGAUAGCGCAAACGCCCUCAACCUCCAAUGCAUCCCACCACAUGAUGAUGCCUGAAGAGCCUUGGUUUUUUG [C73A U78C] | -0.268 |
| GACCAAUCUGCUCUCAGAGCUCGAGAACAUCUUCGGAUGCAGAGGAGGCAGGCUUCGGUGACGCGAUAGCGCCAACGUCCUCAUCCUCCAAUGCAUCCCACCACAUGAUGAUGCCUGAAGAGCCUUGGUUUUUUG [C12U G61A A84U] | 0.279 |
| GACCAACCUGCCCCCAGAGCUCGAGAACGUCUUCGGAUGCAGAGGAGGCAGGCUUCGGUGGCGCGAUAGCCCCAACGUCCUCAACCUCCAAUGCAUCCCACCACAUGAUGAUUCCUGAAGAGCCUUGGUUUUUUG [U7C U14C A29G G71C G113U] | -4.94 |
| GACCAAUCUGCCCUCAGAGCUCGAGAACAUCUUCGGAUGCAGAGGAGGCGGACUUCGGUGGCGCGAUAGCGCCAACGUCCUCAACCUCCAAUGCAUCCCACCACAUGAUGAUGCCUGAAGAGCCUUGGUUUUUUG [A50G G52A] | 0.186 |
| GACCAAUCUGCCCUCAGAGCUCGAGAACAUCUUCGGAUGCAGAGUAGGCUGGCUUCGGUGGCGCGAUAGCGCCAACGUCCUCAACCUCCAAUGCAUCCCACCACAUGAUGAUGCCUUAAGAGCCUUGGUUUUUUG [G45U A50U G117U] | -4.81 |
| GACCAAUCUGCCCUCAGAACUCGAGAACAUCUUCGGAUGCAGAGGAGGCAGGCUUCGGUGGCGCGAUAGCGCCAACGUCCUCAACCUCCAAUGCUUCCCAUCACAUGAUGAUGCCUGAAGAGCCUUGGUUUUUUG [G19A A95U C101U] | -3.88 |
| GACCGAUCUGCCCUCAGAGCUCGAGAACAUCUUCGGAUGCAGAGGAGGCAGGCUUCAGUGGCACGAUAGCGCCAACGUCCUCAACCUCCAAUGCAUCCCACCACAUGAUGAUGCCUGAAGAGCCUUGGUUUUUUG [A5G G57A G63A] | -2.06 |
| GACCAAUCUGCCCUCAGAGCUCGAGAAUAUCUUCGGAUGCAGAGGAGGCAGGCUUCGGUGGCGCGAUAGCACCAACAUCCUCAACCUCCAAUGCAUCCCACCACAUGAUGAUGACUGAAGAGCCUUGGUUUUUUG [C28U G71A G77A C114A] | -6.98 |
| GACCAAUCUGCCCUCAGAGCUCGAGAACAUCUUCGGAUGCAGAGGAGGCAGGCUUCGGUGGCGCGAUAGCGCCAACGUCCUCAACCACCAAUGCAUCCCAUCACAUGAUGAUGCCUGAAGAGCCUUGGUUUUUUG [U87A C101U] | 0.0521 |
| GACCAAUCCGCCCUCAGAGCUCGAGAACAUCUUCGGAUGCAGAGGAGGCAGGCUUCGGUGGCGCGAUAGCGCCAACGUCCUCAACCUCCAAUGCAUCCCACCACAUGAUGAAGGCUGAAGAGCCUUGGUUUUUUG [U9C U112A C114G] | 0.928 |
| GACCAAUCUGCCCUCAGAGCUCGAGAACAUCUUCGGAUGCAGAGGAGGCAGGCUUGGGUGGCGCGAUAGCGCCAACGUCCUCAACCUCCAACGCAUCCCACCACAUGAUGAUGCCUGAAGAGCCUUGGUUUUUUG [C56G U92C] | -1.23 |
| GACCAAUCUGCCCUCAGAGCUCGAGAACAUCUUCGGAUGCAGAGGAGGCAGGCUUCGGUGGCGCGAUAGCGCCAACGUCCUCAACCUCCAAUGCACCCCACUACAUGAUGAUCCCUGAAGAGCCUUGGUUUUUUG [U96C C102U G113C] | -4.89 |
| GACCAAUCUGCCCUCAGAGCUCGAGAACAUCUUCGGAUGCAAAGGAGGCAGGCUUGGGUGGCGCGAUAGCGCCAACGUCCUCAACCUCCAAUGCAUCCCACCACAUGAUGAUGCCUGAAGAGCCUUGGUUUUUUG [G42A C56G] | -1.49 |
| GACCAAUCUGCCCUCAGAGCUGGAGAACAUCUUCGGAUGCAGAGGAGGCAGGCUUCGGUGGCGCGAUAGCGCCAACGUCCUCAACCUCCAAUGCAUCCCACCACAUGAUUAGGCCUGAAGAGCCUUGGUUUUUUG [C22G G110U U112G] | -7.26 |
| GACCAAUCUGCCCUCAGAGCUCGAGAACAUCUUCGGAUGCAGAGGAGGCAGGCUUCGGUGGCGCGAUAGCGCCAACGUCCUCAACCUCCAAUGCAUCCCACCACAUGAUAAUGCCUGAAGAGCCUUGGUUUAUUG [G110A U132A] | -1.37 |
| GAUCAAUCUGCCCUCUGAGCUCGAGAACAUCUUCGGAUGCAGAGGAGGCAGGCUUCGGUGGCGCGAUAGCGCCAACGUCCUCAACCUCCAAUGCAUCCCACCACAUGAUGAUGCCUGAAGAGCCUUGGUUUUUUG [C3U A16U] | -2.53 |
| GACCAAUCUGCACUCAGAGCUCGAGAACAUCUUCGGAUGCAGAGGAGGCAGGCUUCGGUGGCGCGAUAGCGCCAACGUCCUCAACCUCCAAAGCAUCCCACCACAUGAUGAUGCCUGAAGAGCCUUGGUUUUUUG [C12A U92A] | -3.47 |
| GACCAAUCUGCCCUCAGAGCUCGAGAACAUCUUCGGAUGCAGAGGAGGCAGGCUUUGGUGGCGCGAUAGCGCCAACGUCCUCAACCUCCAAUGCAUCCCACCACAUGAUGAUUCCUGAAGAGGCUUGGUGUUUUG [C56U G113U C123G U130G] | -2.36 |
